2 molecules from patent US20060193849A1 (ANTISOMA, published 2006) can be followed below.

For assay [1], the target named is T1, MUC-1 gene product, the membrane mucin glycoprotein (polymorphic epithelial mucin or PEM) (human, UniProt P15941 24-1255).
T1 construct: whole, on cells; SKOV-3 is also named in the method
As to the kind of experiment: flow cytometry equilibrium binding on MCF7 cells; after pre-incubation in PBS for 1 h at 37 C against no pre-incubation. (In general: In flow cytometry, cells or beads pass a laser one at a time.)
Experimental: (§1) Bound antibodies were detected under the same conditions, as described in the section entitled binding assays above.
(§2) The median fluorescence intensity (MFI) was determined as described in the binding assays section above and the background fluorescence was subtracted. Equilibrium constants were determined by using the Marquardt-Levenberg algorithm for non-linear regression with the GraphPad Prism version 3.0a for Macintosh (GraphPad Software, San Diego, Calif.).

Assay [2] addresses T1, MUC-1 gene product, the membrane mucin …. As to the kind of experiment: flow cytometry equilibrium binding on MCF7 cells, non-linear regression; after pre-incubation in PBS for 1 h at 37 C.
Experimental: as §1, §2
Assay [3] shares this target. As to the kind of experiment: flow cytometry equilibrium binding on MCF7 cells, non-linear regression; 0 h at 37 C.
Experimental: as §1
After two final washing steps in 200 μl of FACS buffer, the cells were fixed in PBS buffer containing 2% paraformaldehyde for 15 minutes at room temperature and analysed by flow cytometry.
as §2
Assay [4] has the same target. As to the kind of experiment: flow cytometry equilibrium binding on MCF7 cells; reference scFv 4.9M.
Experimental: as §1, §2

T1 sequence (P15941 24-1255): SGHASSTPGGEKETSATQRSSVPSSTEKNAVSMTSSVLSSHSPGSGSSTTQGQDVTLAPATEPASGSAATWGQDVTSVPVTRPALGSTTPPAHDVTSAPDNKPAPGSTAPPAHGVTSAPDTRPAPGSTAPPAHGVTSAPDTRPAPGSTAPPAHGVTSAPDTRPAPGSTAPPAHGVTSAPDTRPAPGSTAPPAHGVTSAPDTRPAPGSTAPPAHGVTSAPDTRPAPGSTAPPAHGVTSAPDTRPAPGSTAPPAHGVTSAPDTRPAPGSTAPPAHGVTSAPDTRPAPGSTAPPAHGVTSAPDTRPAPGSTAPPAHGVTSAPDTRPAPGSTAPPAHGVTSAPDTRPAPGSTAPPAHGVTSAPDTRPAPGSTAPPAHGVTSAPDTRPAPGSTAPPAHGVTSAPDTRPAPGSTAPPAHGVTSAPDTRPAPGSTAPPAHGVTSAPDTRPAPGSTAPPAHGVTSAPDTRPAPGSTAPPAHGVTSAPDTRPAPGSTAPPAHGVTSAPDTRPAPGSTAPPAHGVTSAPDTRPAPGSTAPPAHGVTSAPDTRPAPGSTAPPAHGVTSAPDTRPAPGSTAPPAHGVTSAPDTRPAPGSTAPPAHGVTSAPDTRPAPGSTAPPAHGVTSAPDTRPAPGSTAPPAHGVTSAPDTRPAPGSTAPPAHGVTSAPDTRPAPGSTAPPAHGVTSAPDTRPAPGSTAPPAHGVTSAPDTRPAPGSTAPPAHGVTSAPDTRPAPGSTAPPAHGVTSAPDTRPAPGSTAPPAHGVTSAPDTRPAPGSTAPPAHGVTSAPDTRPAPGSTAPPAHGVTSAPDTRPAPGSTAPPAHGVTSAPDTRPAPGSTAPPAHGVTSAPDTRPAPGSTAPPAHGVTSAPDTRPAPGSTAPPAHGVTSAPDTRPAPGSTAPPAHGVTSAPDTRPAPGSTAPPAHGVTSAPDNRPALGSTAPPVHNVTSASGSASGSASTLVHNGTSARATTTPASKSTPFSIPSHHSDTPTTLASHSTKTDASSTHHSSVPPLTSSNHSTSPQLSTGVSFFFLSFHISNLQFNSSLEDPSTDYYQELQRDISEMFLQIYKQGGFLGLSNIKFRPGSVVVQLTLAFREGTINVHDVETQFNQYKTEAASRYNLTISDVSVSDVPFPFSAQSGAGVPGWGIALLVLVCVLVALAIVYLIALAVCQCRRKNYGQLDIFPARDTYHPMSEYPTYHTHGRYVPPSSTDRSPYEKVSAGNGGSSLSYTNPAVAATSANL

B1: huHMFG1 scFv mutant 4.9M (stability engineered huHMFG1-scFv/Clone 4.9) (scFv)
scFv: QVQLVQSGAEVKKPGASVKVSCKASGYTFSAYWIEWVRQAPGKGLEWVGEILPGSNNSRYNEKFKGRVTVTADTSTNTAYMELSSLRSEDTAVYYCARSYDFAWFAYWGQGTLVTVSSGGGGSGGGGSGGGGSDIQMTQSPSSLSASVGDRVTITCKSSQSLLYSSNQKIYLAWYQQKPGKAPKLLIYWASTRESGVPSRFSGSGSGTDFTFTISSLQPEDIATYYCQQYYRYPRTFGQGTKVEIKR
notes: also called scFv 4.9M; HMFG1-scFv 4.9M
As a reminder, the Kd is the free concentration of one partner at which half of the binding sites on the other are occupied at equilibrium, for simple one-to-one binding. Higher therefore signals a looser complex. For B1, the “fold decrease in antigen binding affinity after 1 hour at 37° C. in PBS” value in assay [1] amounted to 1.9 fold. Moreover, the Kd stood at 195 nM in assay [2] and 103 nM in assay [3].

B2: diabody Db 4.9M (other)
chain 1: QVQLVQSGAEVKKPGASVKVSCKASGYTFSAYWIEWVRQAPGKGLEWVGEILPGSNNSRYNEKFKGRVTVTADTSTNTAYMELSSLRSEDTAVYYCARSYDFAWFAYWGQGTLVTVSSGGGGSDIQMTQSPSSLSASVGDRVTITCKSSQSLLYSSNQKIYLAWYQQKPGKAPKLLIYWASTRESGVPSRFSGSGSGTDFTFTISSLQPEDIATYYCQQYYRYPRTFGQGTKVEIKR
chain 2: B2 chain 1
notes: also called diabody 4.9
With B2, the “fold higher affinity than the corresponding scFv 4.9M” value in assay [4] came to 13 fold. For the same molecule, in assay [3], the equilibrium dissociation constant (Kd) amounted to 8 nM.
